This passage reports hydrolyzing rate results from patent publication US5656591.

The target of the assay is commercial lactoferrin just as isolated from cow's milk (cow (bovine)) (UniProt P24627).

The substance “commercial swine pepsin (from UniProt P00791) (enzyme)” gave a hydrolyzing rate of 11.3%.
